Assay results from article PMC3699631, “Posttranslational Modifications of the Histone 3 Tail and Their Impact on the Activity of Histone Lysine Demethylases In Vitro” (PLoS ONE, 2013).

Target: T1, human cc-KDM4C (Homo sapiens, UniProt Q9H3R0)
T1 construct: Truncated constructs of KDM4A and KDM4C containing only the catalytic cores (cc-KDM4A/cc-KDM4C); made in house
T1 sequence (Q9H3R0 1-349 limits assumed): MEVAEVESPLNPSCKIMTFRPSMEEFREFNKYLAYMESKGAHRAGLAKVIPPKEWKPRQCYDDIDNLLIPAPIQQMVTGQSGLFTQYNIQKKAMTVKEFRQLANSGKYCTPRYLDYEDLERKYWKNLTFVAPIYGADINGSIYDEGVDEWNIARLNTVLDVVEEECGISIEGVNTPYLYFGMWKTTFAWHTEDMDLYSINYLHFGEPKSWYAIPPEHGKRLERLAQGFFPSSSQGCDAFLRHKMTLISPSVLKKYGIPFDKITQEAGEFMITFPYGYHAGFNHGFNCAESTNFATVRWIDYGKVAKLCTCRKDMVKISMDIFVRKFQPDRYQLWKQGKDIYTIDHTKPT
Experiment: FDH-assay enzyme kinetics of H3 peptide demethylation, truncated KDM4C
Assay type: biochemical
Settings: for K m / k cat / k cat /K m / demethylation / catalytic activity (in words): FDH-assay; for K m: 50 mM HEPES (pH 7.5), 50 mM NaCl, 50 µM FeSO4, 500 µM α-KG, 500 µM ascorbate, 2 mM NAD, substrate 10–1000 µM, e.g. 4.88 µM KDM4C, NADH fluorescence 15–30 minutes; for K m / k cat: triplicate; for k cat: pH 7.5, NADH fluorescence; for k cat /K m: pH 7.5, triplicate; for demethylation / catalytic activity (in words): compared to H3(1–24)K9me3 where a change is stated
Experimental: The enzyme kinetics were measured using a Formaldehyde DeHydrogenase Assay (FDH-Assay) and the demethylation of substrates was confirmed when possible by MALDI-TOF-MS, see File S1 for details. The test solution contained 50 mM HEPES (pH 7.5), 50 mM NaCl, 50 µM FeSO4, 500 µM α-KG, 500 µM ascorbate, 2 mM NAD, approximately 0.05 unit of FDH and e.g. 4.88 µM KDM4C (enzyme concentration varied between batches). The reference solution was comprised of the same except substrate. The assay was initiated by adding various concentrations of H3 peptide substrates e.g. H3(1–24)K9me3 (10–1000 µM) and the increase in NADH fluorescence was measured over 15–30 minutes in 30 second intervals. Data analysis and kinetic values were obtained using programs Excel and GraphPad Prism® 5.0. For details, see File S1.
(§1) The standard deviations for k cat/K m were calculated using the statistic law of propagation of errors. Standard errors for Michaelis-Menten Kinetics were automatically given in GraphPad Prism®, with a 95% confidence interval. All enzyme kinetic curves were done in triplicate unless otherwise stated.
Test for activity of enzyme using the fluorescence FDH assay, determination of Vmax and Km of enzymes with substrate, expression and purification of cc-KDM4A and cc-KDM4C software and parameters for the FDH coupled assay, see Lohse et al.^21
as §1, with “kcat/ Km” for “k cat/K m”, “95 %” for “95%”

[1] = SD by propagation of errors, unit: (min^−1 * µM^−1) * 10^3

Row | Substance | K m | k cat | k cat /K m [1] | demethylation / catalytic activity (in words) | k cat /K m (figures) [min^-1 * μM^-1 * 10^3] | fold increase in k cat/K m (compared to H3(1–24)K9me3) [fold]
1 | H3(1–24)K9me2: truncated histone tail, 24 first amino acids from the N-terminus of H3, dimethylated lysine 9 | 79±10 | 0.1±0.01 | 1.3±0.2 |  |  | 
2 | H3(1–24)K9me3T11(ph): H3(1–24)K9me3 with phosphorylation of threonine 11 |  |  |  | no detectable turnover |  | 
3 | H3(1–24)K9me3: truncated histone tail, 24 first amino acids from the N-terminus of H3, trimethylated lysine 9; control peptide | 55±11 | 0.5±0.04 | 9±1 |  | 9 ± 1 | 
4 | H3(1–24)K4me3K9me3: bis-tri-methylated substrate, trimethylated K4 in combination with H3K9me3 | 70±13 | 1.2±0.1 | 17±2 | an increase of the enzymatic catalytic efficiency | 17 ± 2 | 2
